In PMC2790986:

B1: PON2 (paraoxonase-2), Cys311 and Ser311 variants: N254Q (printed N254G) (protein)
parent chain: MGRLVAVGLLGIALALLGERLLALRNRLKASREVESVDLPHCHLIKGIEAGSEDIDILPNGLAFFSVGLKFPGLHSFAPDKPGGILMMDLKEEKPRARELRISRGFDLASFNPHGISTFIDNDDTVYLFVVNHPEFKNTVEIFKFEEAENSLLHLKTVKHELLPSVNDITAVGPAHFYATNDHYFSDPFLKYLETYLNLHWANVVYYSPNEVKVVAEGFDSANGINISPDDKYIYVADILAHEIHVLEKHTNMNLTQLKVLELDTLVDNLSIDPSSGDIWVGCHPNGQKLFVYDPNNPPSSEVLRIQNILSEKPTVTTVYANNGSVLQGSSVASVYDGKLLIGTLYHRALYCEL
B2: PON2 (paraoxonase-2), Cys311 and Ser311 variants: N254A/N323A (protein)
parent chain: B1 parent chain
B3: PON2 (paraoxonase-2), Cys311 and Ser311 variants: N323Q (protein)
parent chain: B1 parent chain
B4: PON2 (paraoxonase-2), Cys311 and Ser311 variants: N254A (protein)
parent chain: B1 parent chain
B5: PON2 (paraoxonase-2), Cys311 and Ser311 variants: N323A (protein)
parent chain: B1 parent chain

Assay: 3OC12-HSL inactivation by CHO lysate, bioassay
Conditions: glycan lost; control: wild-type PON2 Cys311

| Protein | enzymatic_activity |
| --- | --- |
| B1 | no change |
| B2 | decreases |
| B3 | decreases |
| B4 | no change |
| B5 | decreases |
